Results on one molecule are retold here after publication PMC7327521 (Journal of Molecular Biology, 2020).

What all share (experiment): fluorescence polarisation
Assay [1] has as its target T1, tandem SH2 domain of C. glabrata Spt6 (Spt6-tSH2) (C. glabrata, UniProt Q6FLB1 1250-1444).
T1 sequence (looked up): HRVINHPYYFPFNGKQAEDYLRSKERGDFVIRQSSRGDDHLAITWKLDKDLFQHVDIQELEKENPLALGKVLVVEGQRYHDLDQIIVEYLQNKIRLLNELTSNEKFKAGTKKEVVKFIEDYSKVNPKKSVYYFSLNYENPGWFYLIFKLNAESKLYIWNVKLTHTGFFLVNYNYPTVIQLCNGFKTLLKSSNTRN

For another assay, the target named is T2, Spt6-tSH2 K1434A (C. glabrata, UniProt Q6FLB1 1250-1444, K1434A).
T2 sequence (looked up): T1 sequence (looked up) with K185A

The target of another assay is T3, Spt6-tSH2 E1324A (C. glabrata, UniProt Q6FLB1 1250-1444, E1324A).
T3 sequence (looked up): T1 sequence (looked up) with E75A

For assay [2], the target named is T4, N-terminal SH2 domain of C. glabrata Spt6 (Spt6-N-SH2) (C. glabrata, UniProt Q6FLB1 1250-1354).
T4 sequence (looked up): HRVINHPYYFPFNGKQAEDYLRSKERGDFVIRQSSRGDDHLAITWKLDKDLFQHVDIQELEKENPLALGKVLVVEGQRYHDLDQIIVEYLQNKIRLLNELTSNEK

The target of the next assay is T5, Spt6-tSH2 R1281A/S1284A (C. glabrata, UniProt Q6FLB1 1250-1444, R1281A | S1284A).
T5 sequence (looked up): T1 sequence (looked up) with R32A, S35A

In the next assay the target is T6, Spt6-tSH2 S1283A (C. glabrata, UniProt Q6FLB1 1250-1444, S1283A).
T6 sequence (looked up): T1 sequence (looked up) with S34A

The target of the next assay is T7, Spt6-tSH2 K1354E (C. glabrata, UniProt Q6FLB1 1250-1444, K1354E).
T7 sequence (looked up): T1 sequence (looked up) with K105E

A further assay concerns the target T8, Spt6-tSH2 R1281A/R1285A (C. glabrata, UniProt Q6FLB1 1250-1444, R1281A | R1285A).
T8 sequence (looked up): T1 sequence (looked up) with R32A, R36A

The next assay deals with T9, Spt6-tSH2 S1284A (C. glabrata, UniProt Q6FLB1 1250-1444, S1284A).
T9 sequence (looked up): T1 sequence (looked up) with S35A

The target of the next assay is T10, Spt6-tSH2 R1281A (C. glabrata, UniProt Q6FLB1 1250-1444, R1281A).
T10 sequence (looked up): T1 sequence (looked up) with R32A

Residue numbers refer to the chain shown, from its start. Square brackets hold non-standard residues; d marks the D form. Ends that are not written are not given here. pY = N[C@@H](Cc1ccc(OP(=O)(O)O)cc1)C(=O)O

As for {5,6‑FAM}-PS[pY]SPTSPS[pY]SPTSPS [(pY1-CTD)2, FAM-labelled tyrosine-phosphorylated CTD diheptad], the Kd in [1] came out at 5.1 µM; in the assay with Spt6-tSH2 K1434A, 24 µM; with Spt6-tSH2 E1324A it was 1.4 µM; in assay [2], 313 µM; in the assay with Spt6-tSH2 R1281A/S1284A, 11.4 µM; with Spt6-tSH2 S1283A it was 5.4 µM. In addition, the Kd with Spt6-tSH2 K1354E is 16.3 µM; with Spt6-tSH2 R1281A/R1285A, 11.6 µM; with Spt6-tSH2 S1284A, 8.2 µM; with Spt6-tSH2 R1281A, 17.6 µM.

One may read the Kd as the free concentration of one partner at which half of the binding sites on the other are occupied at equilibrium, for simple one-to-one binding. A low value points to higher affinity.
